From patent publication US20240033343A1

What was measured:
S2GSG (SARS-CoV-2) = S2GSG (SARS-CoV-2) (UniProt P0DTC2)
AAAA (SARS-CoV-2; HIV) = AAAA (SARS-CoV-2; HIV) (UniProt P0DTC2)
S1GSG (SARS-CoV-2) = S1GSG (SARS-CoV-2) (UniProt P0DTC2)
W1GGSG (SARS-CoV-2; HIV) = W1GGSG (SARS-CoV-2; HIV) (UniProt P0DTC2)
M1GGSGG (SARS-CoV-2) = M1GGSGG (SARS-CoV-2) (UniProt P0DTC2)
S2GGSGG (SARS-CoV-2) = S2GGSGG (SARS-CoV-2) (UniProt P0DTC2)
[1] = molecular target: SARS-CoV-2 Sclamp (SARS-CoV-2) (UniProt P0DTC2)
RAA (SARS-CoV-2; HIV) = RAA (SARS-CoV-2; HIV) (UniProt P0DTC2)
[2] = molecular target: W2GGSGG (SARS-CoV-2; HIV) (UniProt P0DTC2)
S1GGSGG (SARS-CoV-2) = S1GGSGG (SARS-CoV-2) (UniProt P0DTC2)
W1GSG (SARS-CoV-2) = W1GSG (SARS-CoV-2) (UniProt P0DTC2)
W2GSG (SARS-CoV-2; HIV) = W2GSG (SARS-CoV-2; HIV) (UniProt P0DTC2)

CR3022 (antibody)
Kd (S2GSG (SARS-CoV-2)): 1030 pM | Kd (AAAA (SARS-CoV-2; HIV)): 740 pM | Kd (S1GSG (SARS-CoV-2)): 1020 pM | Kd (W1GGSG (SARS-CoV-2; HIV)): 890 pM | Kd (M1GGSGG (SARS-CoV-2)): 570 pM | Kd (S2GGSGG (SARS-CoV-2)): 1180 pM | Kd [1]: 580 pM | Kd (RAA (SARS-CoV-2; HIV)): 910 pM | Kd [2]: 1090 pM | Kd (S1GGSGG (SARS-CoV-2)): 690 pM | Kd (W1GSG (SARS-CoV-2)): 1080 pM | Kd (W2GSG (SARS-CoV-2; HIV)): 2060 pM
